± gives the standard error. For part of these data: Variants at the floor of the assay were thinned out.
B1: glmS ribozyme (parent)
chain: AUAAAAGCGCCAGAACUACAGAAAUGUAGUUGACGAGGAGGAGGUUUAUCGAAUUUUCGGCGGAUGCCUCCAAA

Tests used:
Details in all cases: with glucosamine-6-phosphate
glucosamine-6-phosphate [1] = variants of: B1; assay: kcat; higher = faster cleavage; RNA array
Outline: (§1)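 Using a hybridised Cy3 probe at 37 °C, barcoded ribozyme variants transcribed in situ by E. coli RNA polymerase on sequenced MiSeq chips were monitored across tiles imaged over ~14 h. The flow contained glucosamine-6-phosphate from 40 μM to 10 mM in HEPES/KCl/Mg(OAc)2 buffer. Signals were normalised to baseline and to non-cleaving reference variants before per-tile medians were fit to one- or two-exponential decays to yield kobs. Weighted Michaelis–Menten fits across concentrations gave kcat and KM.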

glucosamine-6-phosphate [2] = variants of: B1; assay: KM; higher = weaker cofactor use; RNA array
Outline: as §1

glucosamine-6-phosphate [3] = variants of: B1; assay: self-cleavage kobs at 40 uM GlcN6P; higher = faster cleavage; RNA array
Outline: as §1

glucosamine-6-phosphate [4] = variants of: B1; assay: self-cleavage kobs at 160 uM GlcN6P; higher = faster cleavage; RNA array
Outline: as §1

glucosamine-6-phosphate [5] = variants of: B1; assay: self-cleavage kobs at 640 uM GlcN6P; higher = faster cleavage; RNA array
Outline: as §1

glucosamine-6-phosphate [6] = variants of: B1; assay: self-cleavage kobs at 2500 uM GlcN6P; higher = faster cleavage; RNA array
Outline: as §1

glucosamine-6-phosphate [7] = variants of: B1; assay: self-cleavage kobs at 10000 uM GlcN6P; higher = faster cleavage; RNA array
Outline: as §1

Variant | kcat (glucosamine-6-phosphate [1]) | KM (glucosamine-6-phosphate [2]) | self-cleavage kobs at 40 uM GlcN6P (glucosamine-6-phosphate [3]) | self-cleavage kobs at 160 uM GlcN6P (glucosamine-6-phosphate [4]) | self-cleavage kobs at 640 uM GlcN6P (glucosamine-6-phosphate [5]) | self-cleavage kobs at 2500 uM GlcN6P (glucosamine-6-phosphate [6]) | self-cleavage kobs at 10000 uM GlcN6P (glucosamine-6-phosphate [7])
A15G G66C | 0.000786 ± 0.00011 s⁻¹ | 833 ± 220 µM | 3.37e-05 ± 1.1e-05 s⁻¹ | 0.000115 ± 2.5e-05 s⁻¹ | 0.000368 ± 6e-05 s⁻¹ | 0.000793 ± 0.00014 s⁻¹ | 0.000649 ± 9.7e-05 s⁻¹
A15G G66U | 0.00552 ± 0.0016 s⁻¹ | 5370 ± 2200 µM | 6.81e-05 ± 1.4e-05 s⁻¹ | 0.000169 ± 3.6e-05 s⁻¹ | 0.000492 ± 9.7e-05 s⁻¹ | 0.00161 ± 0.00029 s⁻¹ | 0.00374 ± 0.00049 s⁻¹
A14U U57G | 2.1e-05 ± 4e-06 s⁻¹ | – | < 1e-05 s⁻¹ | – | – | – | –
A14U U57C | 7.65e-05 ± 1.4e-05 s⁻¹ | – | – | – | – | 5.75e-05 ± 1.1e-05 s⁻¹ | 6.38e-05 ± 1.2e-05 s⁻¹
A15U G59U | < 1e-05 s⁻¹ | – | < 1e-05 s⁻¹ | < 1e-05 s⁻¹ | – | – | –
A15G A64U | 0.000233 ± 2.7e-05 s⁻¹ | 3870 ± 820 µM | – | – | 3.22e-05 ± 9e-06 s⁻¹ | 9.11e-05 ± 1.2e-05 s⁻¹ | 0.000169 ± 2.4e-05 s⁻¹
A15G C16G C71G | 0.000103 ± 1.4e-05 s⁻¹ | – | – | – | – | 0.000115 ± 4e-05 s⁻¹ | 9.34e-05 ± 2.6e-05 s⁻¹
A15U U65A | 0.000377 ± 6.3e-05 s⁻¹ | 1080 ± 410 µM | – | 6.26e-05 ± 2.2e-05 s⁻¹ | 0.000146 ± 2.3e-05 s⁻¹ | 0.00021 ± 4.1e-05 s⁻¹ | 0.00039 ± 5.6e-05 s⁻¹
A14U G35U | < 1e-05 s⁻¹ | – | – | < 1e-05 s⁻¹ | – | < 1e-05 s⁻¹ | –
A15U U56G | 0.00786 ± 0.0027 s⁻¹ | 3290 ± 1500 µM | 0.000149 ± 2.5e-05 s⁻¹ | 0.000265 ± 5e-05 s⁻¹ | 0.00143 ± 0.00018 s⁻¹ | 0.00363 ± 0.00053 s⁻¹ | 0.00565 ± 0.00088 s⁻¹
A15G A52C | 2.96e-05 ± 2e-06 s⁻¹ | 1090 ± 400 µM | < 1e-05 s⁻¹ | – | – | – | 2.66e-05 ± 9.9e-06 s⁻¹
A15G G59U | 0.000115 ± 2.5e-05 s⁻¹ | – | – | – | 2.79e-05 ± 1.3e-05 s⁻¹ | 4.46e-05 ± 1.4e-05 s⁻¹ | 9.05e-05 ± 1.6e-05 s⁻¹
A15C U54G | 0.00559 ± 0.0011 s⁻¹ | 2690 ± 780 µM | 0.000104 ± 1.6e-05 s⁻¹ | 0.000285 ± 5.1e-05 s⁻¹ | 0.000903 ± 0.00029 s⁻¹ | 0.00205 ± 0.00055 s⁻¹ | 0.00475 ± 0.0006 s⁻¹
A15C C71G | 0.000307 ± 5.8e-05 s⁻¹ | 1010 ± 390 µM | – | 4.96e-05 ± 1.3e-05 s⁻¹ | 0.00011 ± 1.2e-05 s⁻¹ | 0.000299 ± 3.9e-05 s⁻¹ | 0.00025 ± 3.6e-05 s⁻¹
A15U G41A | 0.000124 ± 3.5e-05 s⁻¹ | – | – | – | 6.09e-05 ± 1.6e-05 s⁻¹ | 0.000147 ± 2.5e-05 s⁻¹ | 8.75e-05 ± 2.5e-05 s⁻¹
A15U A64G | 0.00706 ± 0.00091 s⁻¹ | 1990 ± 370 µM | 0.000142 ± 2.5e-05 s⁻¹ | 0.00053 ± 0.0001 s⁻¹ | 0.00182 ± 0.00029 s⁻¹ | 0.00336 ± 0.00058 s⁻¹ | 0.0066 ± 0.001 s⁻¹

Variant | kcat (glucosamine-6-phosphate [1]) | KM (glucosamine-6-phosphate [2]) | self-cleavage kobs at 40 uM GlcN6P (glucosamine-6-phosphate [3]) | self-cleavage kobs at 160 uM GlcN6P (glucosamine-6-phosphate [4]) | self-cleavage kobs at 640 uM GlcN6P (glucosamine-6-phosphate [5]) | self-cleavage kobs at 2500 uM GlcN6P (glucosamine-6-phosphate [6]) | self-cleavage kobs at 10000 uM GlcN6P (glucosamine-6-phosphate [7])
A14U U69A | 0.000113 ± 2e-05 s⁻¹ | 802 ± 390 µM | – | – | 5.17e-05 ± 1.1e-05 s⁻¹ | 7.13e-05 ± 1.7e-05 s⁻¹ | 0.000122 ± 2.4e-05 s⁻¹
C16A G32A | 0.0012 ± 0.00043 s⁻¹ | – | – | – | 0.000229 ± 0.00011 s⁻¹ | – | 0.000787 ± 0.00012 s⁻¹
C16A G32C | 9.38e-05 ± 2.3e-06 s⁻¹ | 1220 ± 140 µM | – | – | 3.44e-05 ± 1.6e-05 s⁻¹ | 5.99e-05 ± 1.7e-05 s⁻¹ | 8.41e-05 ± 1e-05 s⁻¹
A15U A36G U69C C70A | 1.84e-05 ± 4.3e-06 s⁻¹ | – | – | – | – | – | –
A15U C50A | 1.29e-05 ± 3.8e-06 s⁻¹ | – | – | – | – | – | –
A14U U49G A53U U69G | 6.87e-05 ± 2.3e-05 s⁻¹ | – | – | 8.99e-05 ± 3.4e-05 s⁻¹ | – | 7.58e-05 ± 2.1e-05 s⁻¹ | –
A14U U45G C68U | 0.000104 ± 5.1e-06 s⁻¹ | 786 ± 160 µM | – | – | 4.96e-05 ± 1.7e-05 s⁻¹ | 7.43e-05 ± 2.3e-05 s⁻¹ | 9.78e-05 ± 1.7e-05 s⁻¹
C16A U31C | 0.000468 ± 0.00021 s⁻¹ | – | – | – | 6.72e-05 ± 1.1e-05 s⁻¹ | 0.000139 ± 2.8e-05 s⁻¹ | 0.000418 ± 0.00011 s⁻¹
A14U G32U | 0.000874 ± 0.00012 s⁻¹ | 3050 ± 730 µM | – | 7.67e-05 ± 1.7e-05 s⁻¹ | 0.000142 ± 1.2e-05 s⁻¹ | 0.000422 ± 4e-05 s⁻¹ | 0.00066 ± 5.2e-05 s⁻¹
A15C U47A | 0.00412 ± 0.0012 s⁻¹ | 2080 ± 870 µM | 0.000116 ± 1.4e-05 s⁻¹ | 0.000266 ± 5.3e-05 s⁻¹ | 0.000773 ± 0.00011 s⁻¹ | 0.00226 ± 0.00034 s⁻¹ | 0.00367 ± 0.00044 s⁻¹
A15C U47G | 0.000994 ± 5.2e-05 s⁻¹ | 1270 ± 120 µM | 3.18e-05 ± 7.5e-06 s⁻¹ | 0.000121 ± 2e-05 s⁻¹ | 0.000312 ± 3.6e-05 s⁻¹ | 0.000675 ± 8.1e-05 s⁻¹ | 0.000889 ± 9.5e-05 s⁻¹
A15G U65A C71A | 0.000944 ± 0.0002 s⁻¹ | 755 ± 320 µM | 3.84e-05 ± 1.7e-05 s⁻¹ | – | 0.000466 ± 5.6e-05 s⁻¹ | 0.000535 ± 0.00018 s⁻¹ | 0.000965 ± 0.00023 s⁻¹
A15C A42G | 0.00745 ± 0.00078 s⁻¹ | 1450 ± 220 µM | 0.000206 ± 3.8e-05 s⁻¹ | 0.000843 ± 0.00038 s⁻¹ | 0.00216 ± 0.00062 s⁻¹ | 0.00411 ± 0.001 s⁻¹ | 0.00721 ± 0.0015 s⁻¹
A14U U30A | 0.00136 ± 0.00037 s⁻¹ | 2250 ± 960 µM | 3.62e-05 ± 1e-05 s⁻¹ | 8.35e-05 ± 1.7e-05 s⁻¹ | 0.000337 ± 5.2e-05 s⁻¹ | 0.000564 ± 9.8e-05 s⁻¹ | 0.00134 ± 0.00021 s⁻¹
A15G G43A | 8.91e-05 ± 1.1e-05 s⁻¹ | 2300 ± 940 µM | < 1e-05 s⁻¹ | – | – | 4.89e-05 ± 1.5e-05 s⁻¹ | 7.17e-05 ± 1.4e-05 s⁻¹

— the supplement of paper PMC7125110
